The labels stand for the following.
B1: CPEB3 Ribozyme (parent)
chain: GGGGGCCACAGCAGAAGCGUUCACGUCGCGGCCCCUGUCAGAUUCUGGUGAAUCUGCGAAUUCUGCUGU

In this data set the parent is B1. The experiment in a line: self-cleavage, relative activity (ratio to wild type); higher = more cleavage; co-transcriptional.
In the case of C32U G37A, the self-cleavage was 0.288.

With C32U G37C, the self-cleavage is 0.241.

In the case of C32G U49G, the self-cleavage worked out at 0.371.

Turning to G31C U69C, the self-cleavage worked out at 0.451.

Take G31C U69A: the self-cleavage came out at 0.381.

As for C34A C39A, the self-cleavage came to 0.346.

Turning to C33G U49G, the self-cleavage came out at 0.692.

Take C32G G47U: the self-cleavage worked out at 0.514.

As for G31C U55G, the self-cleavage came to 0.136.

Take C33U U67C: the self-cleavage stood at 0.971.

G31U U55A: the self-cleavage amounted to 0.428.

For C33A A52C, the self-cleavage is 0.582.

C33A A52G: the self-cleavage stood at 0.785.

As for C33A A52U, the self-cleavage was determined as 0.454.

Regarding C32G C54U, the self-cleavage was 0.594.

In the case of G31U U64G, the self-cleavage was 0.479.

On to C32U U36C, for which the self-cleavage was determined as 0.973.

Regarding C32U U36A, the self-cleavage is 0.216.

Consider G31U A40U, for which the self-cleavage came to 0.352.

Regarding C34A C45A, the self-cleavage came out at 0.528.

On to C34A C45G, for which the self-cleavage was found to be 0.427.

Take C33G U69C: the self-cleavage was 0.972.

Take C34A A59C: the self-cleavage amounted to 0.302.

For G31U G65A, the self-cleavage stood at 0.517.

As to C33G U36C, the self-cleavage was determined as 0.531.

Regarding G31U C63A, the self-cleavage was found to be 0.25.

Consider G31U C63G, for which the self-cleavage came out at 0.454.

On to C32G G56A, for which the self-cleavage is 0.354.

On to C32G G56U, for which the self-cleavage came to 0.308.

C32G G56C: the self-cleavage is 0.218.

As for C33U C45U, the self-cleavage came to 0.976.

C32U G65U: the self-cleavage stood at 0.806.

Regarding G31C G68A, the self-cleavage was found to be 0.515.

Consider C32A U53A, for which the self-cleavage amounted to 0.501.

Consider C33A G47U, for which the self-cleavage was 0.961.

In the case of C32U G48U, the self-cleavage was 0.964.

For C32U G48C, the self-cleavage stood at 0.984.

In the case of C32U G48A, the self-cleavage came to 1.

Consider C32U G58U, for which the self-cleavage stood at 0.995.

In the case of C32U G58C, the self-cleavage turned out to be 0.963.

Consider C33U C57G, for which the self-cleavage was 0.247.

C33U C57A: the self-cleavage came out at 0.323.

For C33G U67A, the self-cleavage worked out at 0.857.

As to C33G U67G, the self-cleavage turned out to be 0.93.

Turning to C32A A42G, the self-cleavage was found to be 0.448.

For C33A G37C, the self-cleavage turned out to be 0.265.

Regarding C32A C45A, the self-cleavage was determined as 0.586.

With C32A C45U, the self-cleavage is 0.753.

Consider G31U G56C, for which the self-cleavage is 0.385.

C32A G65U: the self-cleavage amounted to 0.418.

With C32A G65C, the self-cleavage was 0.459.

Turning to C32A U36G, the self-cleavage came out at 0.263.

For G31U A51U, the self-cleavage stood at 0.805.

In the case of G31U A51C, the self-cleavage turned out to be 0.628.

C32U U67G: the self-cleavage is 1.04.

Regarding C32U U67C, the self-cleavage is 0.959.

As to C32A G56C, the self-cleavage was determined as 0.478.

In the case of C33G G41A, the self-cleavage was 0.323.

For the variant C33G G41C, the self-cleavage was determined as 0.27.

G31C U43A: the self-cleavage amounted to 0.193.

Consider C32G U61C, for which the self-cleavage stood at 0.285.

On to C32G U61G, for which the self-cleavage amounted to 0.342.

Turning to C33G U38G, the self-cleavage stood at 0.324.

Regarding C33G U38C, the self-cleavage is 0.45.

Regarding C32U U38G, the self-cleavage came to 0.294.

As to C32U U38A, the self-cleavage was 0.947.

As for C32U G47A, the self-cleavage was determined as 0.971.

Consider C32U G47C, for which the self-cleavage worked out at 0.97.

Consider C33A G58A, for which the self-cleavage is 0.811.

As to G31U A42U, the self-cleavage was 0.485.

Turning to C32U C33G, the self-cleavage stood at 0.374.

For C33G G37C, the self-cleavage came out at 0.16.

Take C32U G56C: the self-cleavage stood at 0.858.

As for C33U G65C, the self-cleavage stood at 0.669.

For the variant C33U G65A, the self-cleavage was found to be 0.919.

On to C34A G65C, for which the self-cleavage turned out to be 0.485.

Consider C32G A51G, for which the self-cleavage turned out to be 0.48.

For C33A, the self-cleavage came out at 0.916.

Regarding C33U, the self-cleavage was determined as 0.994.

For C33G, the self-cleavage stood at 0.668.

Take C32G C34A: the self-cleavage was determined as 0.303.

On to C32G C34G, for which the self-cleavage amounted to 0.212.

In the case of C32U A51G, the self-cleavage is 1.

In the case of C32U A51U, the self-cleavage is 0.982.

C32U U53C: the self-cleavage is 0.875.

As for C34A U36C, the self-cleavage stood at 0.568.

Consider C34A U36G, for which the self-cleavage amounted to 0.316.

For G31C G58U, the self-cleavage worked out at 0.209.

As for G31C G58C, the self-cleavage worked out at 0.179.

Regarding C33G C54A, the self-cleavage is 0.369.

Regarding C32U G41C, the self-cleavage was determined as 0.858.

Regarding C32U G41U, the self-cleavage amounted to 0.856.

With G31U C54A, the self-cleavage is 0.306.

For G31C G65C, the self-cleavage was 0.185.

Take C32G C45A: the self-cleavage was 0.381.

Consider C32G C45U, for which the self-cleavage was found to be 0.573.

C34A G48A: the self-cleavage is 0.862.

As for C33G U55C, the self-cleavage stood at 0.282.

Consider C32G U55A, for which the self-cleavage was 0.268.

On to C33G U53C, for which the self-cleavage was determined as 0.407.

Consider C32G A42U, for which the self-cleavage is 0.44.

On to C32G A42G, for which the self-cleavage came out at 0.569.

As to C32G A42C, the self-cleavage was found to be 0.343.

C32A C66G: the self-cleavage was determined as 0.708.

C33G C63A: the self-cleavage was found to be 0.323.

As for C33U C66A, the self-cleavage worked out at 0.884.

In the case of C33U C66U, the self-cleavage was 0.98.

As to C33A U67C, the self-cleavage turned out to be 0.928.

Take G31U C32A: the self-cleavage worked out at 0.321.

Consider G31U C33A, for which the self-cleavage came to 0.235.

Regarding C33U C34G, the self-cleavage is 0.258.

Take C33U C39G: the self-cleavage was found to be 0.918.

Take C33U C39U: the self-cleavage is 0.932.

Consider C32U C39G, for which the self-cleavage worked out at 0.996.

For C32U C39A, the self-cleavage was 0.915.

For the variant C33A C39U, the self-cleavage amounted to 0.367.

In the case of C33A C39G, the self-cleavage was determined as 0.436.

As to C33A C39A, the self-cleavage is 0.286.

In the case of G31C U64G, the self-cleavage was 0.251.

With C33G G68U, the self-cleavage came to 0.861.

C33G G68C: the self-cleavage came out at 0.877.

On to C33U G58A, for which the self-cleavage is 1.

As to C33U G58U, the self-cleavage was determined as 0.974.

As for C33U G58C, the self-cleavage came out at 1.01.

As to C33U A52G, the self-cleavage amounted to 0.993.

Turning to C33U A52U, the self-cleavage amounted to 0.922.

As to G31U C34U, the self-cleavage is 0.363.

Regarding C32G U36A, the self-cleavage stood at 0.255.

Take C32G U36C: the self-cleavage came out at 0.215.

On to G31U U69G, for which the self-cleavage turned out to be 1.02.

Regarding C33G G58A, the self-cleavage was 0.545.

As to C32A U43G, the self-cleavage is 0.374.

For the variant C33A A60C, the self-cleavage amounted to 0.346.

As for C32A C63A, the self-cleavage came to 0.317.

As to G31U U62A, the self-cleavage was 0.27.

C32U C54G: the self-cleavage stood at 0.819.

As for C33U G68U, the self-cleavage stood at 1.02.

C33U G68A: the self-cleavage stood at 1.01.

Take G31U C45U: the self-cleavage stood at 0.789.

Regarding C32A G68C, the self-cleavage was 0.913.

Turning to C34A G50C, the self-cleavage was 0.773.

In the case of C34A G50A, the self-cleavage worked out at 0.822.

For G31U G58U, the self-cleavage came to 0.86.

Regarding G31U G58A, the self-cleavage came to 0.482.

Regarding C32G C63U, the self-cleavage worked out at 0.358.

Take C32G C63G: the self-cleavage was found to be 0.233.

For C32G U64C, the self-cleavage turned out to be 0.311.

As for G31U G37A, the self-cleavage came to 0.206.

Turning to C32A C39G, the self-cleavage is 0.6.

For C32U C63G, the self-cleavage was 0.933.

Take C32G G48C: the self-cleavage amounted to 0.604.

Regarding G31U U44G, the self-cleavage came to 0.3.

For the variant G31U U44A, the self-cleavage was 0.577.

Regarding C32A C33G, the self-cleavage was determined as 0.258.

Regarding C32A G50U, the self-cleavage is 0.707.

On to G31U A60C, for which the self-cleavage came to 0.291.

Take C33A C63U: the self-cleavage was found to be 0.851.

As to C33A C63A, the self-cleavage amounted to 0.611.

With C32G C66A, the self-cleavage was 0.256.

For the variant C32G C66U, the self-cleavage came to 0.394.

On to C33U U38A, for which the self-cleavage was 0.913.

As for C32A C35U, the self-cleavage turned out to be 0.333.

For C32A C35G, the self-cleavage was determined as 0.163.

With C33G C66G, the self-cleavage came out at 0.625.

Regarding C33A U69A, the self-cleavage is 1.

For C32A U38A, the self-cleavage came out at 0.791.

C34A U38G: the self-cleavage came to 0.232.

For the origin of these results see the RNAGym collection of RNA variant scans (doi:10.7554/elife.80360).
